Target: T1, CLR ECD (29-144) as it stands in MBP-RAMP2.55-140[L106R]-(GSA)3-CLR.29-144-H6 (human, UniProt Q16602 29-144)
T1 construct: calcitonin receptor-like receptor (CLR), human, extracellular domain, residues 29-144; joined to m5 on one chain by the (GSA)3 linker in the crystallised fusion m4; source: E. coli, purified (as part of the fusion m4); not shown: His6, C-terminal, kept
Experiment: crystal structure; bacterially expressed MBP-RAMP2 ECD-(GSA)3-CLR ECD mixed with peptide 1:1.2; hanging drop, 20% PEG MME 5000, 0.1 M sodium HEPES pH 8.2, 150 mM sodium formate, 3% DMSO; 1.83 Å
Conditions: both partners purified

T1 sequence (Q16602 29-144, stated change not applied): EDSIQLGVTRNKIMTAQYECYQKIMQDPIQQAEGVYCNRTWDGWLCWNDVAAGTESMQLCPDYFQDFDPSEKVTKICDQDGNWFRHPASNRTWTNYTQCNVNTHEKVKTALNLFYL

B1: RAMP2 ECD (55-140, L106R) as it stands in MBP-RAMP2.55-140[L106R]-(GSA)3-CLR.29-144-H6 (domain or fragment, human, UniProt O60895 55-140, looked up)
chain: GGTVKNYETAVQFCWNHYKDQMDPIEKDWCDWAMISRPYSTLRDCLEHFAERFDLGFPNPLAERIIFETHQIHFANCSLVQPTFSD
notes: receptor activity-modifying protein 2 (RAMP2), human, extracellular domain, residues 55-140; joined to m6 on one chain by the (GSA)3 linker in the crystallised fusion m4; source: E. coli, purified (as part of the fusion m4); not shown: MBP, N-terminal, kept
B1: binds.

Source: publication doi:10.1101/2020.02.28.970301, “Picomolar affinity antagonist and sustained signaling agonist peptide ligands for the adrenomedullin and calcitonin gene-related peptide receptors” (bioRxiv, 2020)
